Blank lines part the entries; values can stand above or below the binder they belong to.
How the values were obtained:
[1] = target: T1, KRAS G12D peptide on HLA-A*11:01 (human); test: activation reporter or marker
T1 peptide: VVVGADGVGK

[2] = target: T2, KRAS wild type peptide on HLA-A*11:01 (human); test: activation reporter or marker
T2 peptide: VVVGAGGVGK

[3] = target: T3, KRAS wild type peptide on HLA-A*11:01 (human); test: killing
T3 peptide: VVGAGGVGK

[4] = target: T1, KRAS G12D peptide on HLA-A*11:01; test: killing
[5] = target: T4, KRAS G12D peptide on HLA-A*11:01 (human); test: killing
T4 peptide: VVGADGVGK

[6] = target: T2, KRAS wild type peptide on HLA-A*11:01; test: killing
[7] = target: T1, KRAS G12D peptide on HLA-A*11:01; test: cytokine release
[8] = target: T4, KRAS G12D peptide on HLA-A*11:01; test: cytokine release
[9] = target: KRAS G12D neoantigen endogenously presented by HLA A*11:01 on KRAS-p.G12D tumor or transfected cell lines (human); test: cell-based or functional assay

binding result [1]: recognises | binding result [2]: no recognition
B1: EE208_KRAS_1 (TCR, V domains shown)
Valpha: GNSVTQMEGPVTLSEEAFLTINCTYTATGYPSLFWYVQYPGEGLQLLLKATKADDKGSNKGFEATYRKETTSFHLEKGSVQVSDSAVYFCALSDGAGGFKTIFGAGTRLFVKA
Vbeta: EADIYQTPRYLVIGTGKKITLECSQTMGHDKMYWYQQDPGMELHLIHYSYGVNSTEKGDLSSESTVSRIRTEHFPLTLESARPSHTSQYLCASSESLYNEQFFGPGTRLTVL

B2: EE209_2 TCR (TCR, V domains shown)
Valpha: ILNVEQSPQSLHVQEGDSTNFTCSFPSSNFYALHWYRWETAKSPEALFVMTLNGDEKKKGRISATLNTKEGYSYLYIKGSQPEDSATYLCAFLPGYSTLTFGKGTMLLVSP
Vbeta: DAGITQSPRYKITETGRQVTLMCHQTWSHSYMFWYRQDLGHGLRLIYYSAAADITDKGEVPDGYVVSRSKTENFPLTLESATRSQTSVYFCASSVGRGGTEAFFGQGTRLTVV
binding result [3]: no recognition | binding result [4]: recognises | binding result [5]: recognises | binding result [6]: no recognition

binding result [2]: no recognition
B3: EE184_KRAS_8a (TCR, V domains shown)
Valpha: AQTVTQSQPEMSVQEAETVTLSCTYDTSESDYYLFWYKQPPSRQMILVIRQEAYKQQNATENRFSVNFQKAAKSFSLKISDSQLGDAAMYFCAYKKYNDMRFGAGTRLTVKP
Vbeta: DGGITQSPKYLFRKEGQNVTLSCEQNLNHDAMYWYRQDPGQGLRLIYYSQIVNDFQKGDIAEGYSVSREKKESFPLTVTSAQKNPTAFYLCASSTGAGAFRTEAFFGQGTRLTVV
binding result [4]: recognises | binding result [5]: recognises

binding result [7]: recognises | binding result [8]: recognises
B4: PD6_KRASmut_22 (TCR, V domains shown)
Valpha: AQTVTQSQPEMSVQEAETVTLSCTYDTSESDYYLFWYKQPPSRQMILVIRQEAYKQQNATENRFSVNFQKAAKSFSLKISDSQLGDAAMYFCAYYSGGGADGLTFGKGTHLIIQP
Vbeta: SAVISQKPSRDICQRGTSLTIQCQVDSQVTMMFWYRQQPGQSLTLIATANQGSEATYESGFVIDKFPISRPNLTFSTLTVSNMSPEDSSIYLCSVTWAGGWSYGYTFGSGTRLTVV

CD137 upregulation [9]: 7 of 7 lines | IFNg production [9]: 5 of 7 lines | granzyme B production [9]: 6 of 7 lines
B5: EE209_2 TCR (SEQ ID NOs: 12 and 13; beta chain using TRBC2-201) (TCR)
TCR alpha: ILNVEQSPQSLHVQEGDSTNFTCSFPSSNFYALHWYRWETAKSPEALFVMTLNGDEKKKGRISATLNTKEGYSYLYIKGSQPEDSATYLCAFLPGYSTLTFGKGTMLLVSPDIQNPDPAVYQLRDSKSSDKSVCLFTDFDSQTNVSQSKDSDVYITDKTVLDMRSMDFKSNSAVAWSNKSDFACANAFNNSIIPEDTFFPSPESSCDVKLVEKSFETDTNLNFQNLSVIGFRILLLKVAGFNLLMTLRLWSS
TCR beta: DAGITQSPRYKITETGRQVTLMCHQTWSHSYMFWYRQDLGHGLRLIYYSAAADITDKGEVPDGYVVSRSKTENFPLTLESATRSQTSVYFCASSVGRGGTEAFFGQGTRLTVVEDLKNVFPPKVAVFEPSEAEISHTQKATLVCLATGFYPDHVELSWWVNGKEVHSGVSTDPQPLKEQPALNDSRYCLSSRLRVSATFWQNPRNHFRCQVQFYGLSENDEWTQDRAKPVTQIVSAEAWGRADCGFTSESYQQGVLSATILYEILLGKATLYAVLVSALVLMAMVKRKDSRG
killing activity (impedance assay) [9]: 5 of 7 lines

Reference: patent US20260232734A1 (published 2026)
